*1 amine or outer side, *2 acyl side, *3 side chain or, on linkers, in order; H or OH if unused. Where no end group is shown, it is not given here. [ ]: non-standard residue; d: D form. Phe(4-NHSO2CH3) = 4-(methylsulfonamido)phenylalanine, CS(=O)(=O)Nc1ccc(C[C@H](N[*:1])C(=O)[*:2])cc1; Phe(4-guanidino) = N=C(N)Nc1ccc(C[C@H](N)C(=O)O)cc1; pY = N[C@@H](Cc1ccc(OP(=O)(O)O)cc1)C(=O)O; Phe(4-Cl) = N[C@@H](Cc1ccc(Cl)cc1)C(=O)O; Phe(4-F) = N[C@@H](Cc1ccc(F)cc1)C(=O)O; Phe(4-I) = N[C@@H](Cc1ccc(I)cc1)C(=O)O; Phe(NH2) = aminophenylalanine; Phe(NO2) = nitrophenylalanine; Phe(CN) = cyanophenylalanine; Phe(N3) = azidophenylalanine; βAla = NCCC(=O)O
Key:
Src tyrosine kinase [1] = experiment: cell-based or functional assay
Src tyrosine kinase [2] = experiment: cell-based or functional assay; remark: listed apart in the source
Src tyrosine kinase [3] = experiment: cell-based or functional assay; remark: listed apart in the source
Src tyrosine kinase [4] = experiment: steady-state kinetics, radioactive kinase assay; ATP-binding site of Src

B1: Ac-CIYKYF(NH2) (68) (peptide)
peptide: Ac-CIYKY[Phe(NH2)]
IC50, inhibitory potency (Src kinase assay, polyE4Y phosphorylation) (Src tyrosine kinase [1]): > 700 µM

B2: Ac-CIF(NO2)KF(NO2)Y (69) (peptide)
peptide: Ac-CI[Phe(NO2)]K[Phe(NO2)]Y
IC50, inhibitory potency (Src kinase assay, polyE4Y phosphorylation) (Src tyrosine kinase [2]): 1.4 µM

B3: Ac-CIYKF(NO2)F(NO2) (70) (peptide)
peptide: Ac-CIYK[Phe(NO2)][Phe(NO2)]
IC50, inhibitory potency (Src kinase assay, polyE4Y phosphorylation) (Src tyrosine kinase [2]): 5.6 µM

B4: Ac-CIF(NO2)KYF(NO2) (71) (peptide)
peptide: Ac-CI[Phe(NO2)]KY[Phe(NO2)]
IC50, inhibitory potency (Src kinase assay, polyE4Y phosphorylation) (Src tyrosine kinase [2]): 3.4 µM

B5: Ac-CIYKF(4-Guanidine)Y (73) (peptide)
peptide: Ac-CIYK[Phe(4-guanidino)]Y
IC50, inhibitory potency (Src kinase assay, polyE4Y phosphorylation) (Src tyrosine kinase [1]): > 700 µM

B6: Ac-CIYKF(4-F)Y (74) (peptide)
peptide: Ac-CIYK[Phe(4-F)]Y
IC50, inhibitory potency (Src kinase assay, polyE4Y phosphorylation) (Src tyrosine kinase [1]): 26 µM

B7: Ac-CIYKF(4-C1)Y (75) (peptide)
peptide: Ac-CIYK[Phe(4-Cl)]Y
IC50, inhibitory potency (Src kinase assay, polyE4Y phosphorylation) (Src tyrosine kinase [1]): 7.3 µM

B8: Ac-CIYKF(4-I)Y (76) (peptide)
peptide: Ac-CIYK[Phe(4-I)]Y
IC50, inhibitory potency (Src kinase assay, polyE4Y phosphorylation) (Src tyrosine kinase [1]): 0.78 µM

B9: CIYKF(NO2)Y (77) (peptide)
peptide: CIYK[Phe(NO2)]Y
IC50, inhibitory potency (Src kinase assay, polyE4Y phosphorylation) (Src tyrosine kinase [1]): 3 µM

B10: Ac-CIYKF(CN)Y (78) (peptide)
peptide: Ac-CIYK[Phe(CN)]Y
IC50, inhibitory potency (Src kinase assay, polyE4Y phosphorylation) (Src tyrosine kinase [1]): 6 µM

B11: Ac-CIYKF(N3)Y (79) (peptide)
peptide: Ac-CIYK[Phe(N3)]Y
IC50, inhibitory potency (Src kinase assay, polyE4Y phosphorylation) (Src tyrosine kinase [1]): 2 µM

B12: Ac-CIYKF(4-NHSO2CH3)Y (80) (peptide)
peptide: Ac-CIYK[Phe(4-NHSO2CH3)]Y
IC50, inhibitory potency (Src kinase assay, polyE4Y phosphorylation) (Src tyrosine kinase [1]): > 100 µM

B13: IYKYY (81) (peptide)
peptide: IYKYY
IC50, inhibitory potency (Src kinase assay, polyE4Y phosphorylation) (Src tyrosine kinase [2]): 211 µM

B14: Ac-CIYKY (82) (peptide)
peptide: Ac-CIYKY
IC50, inhibitory potency (Src kinase assay, polyE4Y phosphorylation) (Src tyrosine kinase [2]): > 100 µM

B15: Ac-CYKF(4-C1)Y (83) (peptide)
peptide: Ac-CYK[Phe(4-Cl)]Y
IC50, inhibitory potency (Src kinase assay, polyE4Y phosphorylation) (Src tyrosine kinase [2]): 39 µM

B16: Ac-CYKpYY (84) (peptide)
peptide: Ac-CYK[pY]Y
IC50, inhibitory potency (Src kinase assay, polyE4Y phosphorylation) (Src tyrosine kinase [2]): > 100 µM

B17: YIYGSFK (85) (peptide)
peptide: YIYGSFK
IC50, inhibitory potency (Src kinase assay, polyE4Y phosphorylation) (Src tyrosine kinase [1]): > 100 µM

B18: YIF(NO2)GSFK (86) (peptide)
peptide: YI[Phe(NO2)]GSFK
IC50, inhibitory potency (Src kinase assay, polyE4Y phosphorylation) (Src tyrosine kinase [1]): > 100 µM

B19: Ac-YIF(NO2)GSFK (87) (peptide)
peptide: Ac-YI[Phe(NO2)]GSFK
IC50, inhibitory potency (Src kinase assay, polyE4Y phosphorylation) (Src tyrosine kinase [1]): > 100 µM

B20: Ac-CIYKFY (61) (peptide)
peptide: Ac-CIYKFY
IC50, inhibitory potency (Src kinase assay, polyE4Y phosphorylation) (Src tyrosine kinase [1]): > 700 µM

B21: Ac-YIYGSFK (41) (peptide)
peptide: Ac-YIYGSFK
IC50, inhibition of polyE4Y phosphorylation (radioactive kinase assay) (Src tyrosine kinase [3]): 570 µM

B22: Ac-CIYKF(NO2)Y (62) (peptide)
peptide: Ac-CIYK[Phe(NO2)]Y
fold higher inhibitory potency versus 40 (Src tyrosine kinase [3]): ~750 fold | IC50, inhibitory potency (Src kinase assay, polyE4Y phosphorylation) (Src tyrosine kinase [1]): 0.53 µM

B23: 3-phenylpyrazolopyrimidine-peptide conjugate 43 (3-phenylpyrazolopyrimidine-YIYGSFK) (peptide)
peptide: YIYGSFK
modifications: not fully specified (N-terminus); also: short linker between the label and the N-terminus not given here
IC50, inhibition of polyE4Y phosphorylation by active Src (Src tyrosine kinase [3]): 2.7 µM

B24: 3-phenylpyrazolopyrimidine-peptide conjugate 45 (peptide)
peptide: Cys-Ile-Tyr
modifications: not fully specified (N-terminus); also: short linker to N-terminus
fold reduction of inhibitory activity compared to 42 (Src tyrosine kinase [3]): ~145 fold

B25: 3-phenylpyrazolopyrimidine-peptide conjugate 53 (peptide)
peptide: YIYGSFK(3‑phenylpyrazolopyrimidine)
fold reduction of inhibitory potency compared to 43 (Src tyrosine kinase [3]): 11 fold

B26: 3-phenylpyrazolopyrimidine-peptide conjugate 54 (peptide)
peptide: {3‑phenylpyrazolopyrimidine}-GCIYKYY
fold reduction of inhibitory potency compared to 42 (Src tyrosine kinase [3]): 21 fold

B27: Ac-CIYKF(NH2)Y (63) (peptide)
peptide: Ac-CIYK[Phe(NH2)]Y
IC50, inhibitory potency (Src kinase assay, polyE4Y phosphorylation) (Src tyrosine kinase [1]): 93 µM

B28: Ac-CIF(NO2)KYY (64) (peptide)
peptide: Ac-CI[Phe(NO2)]KYY
IC50, inhibitory potency (Src kinase assay, polyE4Y phosphorylation) (Src tyrosine kinase [1]): 1.5 µM

B29: Ac-CIYKF(NO2)YF (65) (peptide)
peptide: Ac-CIYK[Phe(NO2)]YF
IC50, inhibitory potency (Src kinase assay, polyE4Y phosphorylation) (Src tyrosine kinase [2]): 1 µM

B30: Ac-CIYKYF(NO2) (66) (peptide)
peptide: Ac-CIYKY[Phe(NO2)]
IC50, inhibitory potency (Src kinase assay, polyE4Y phosphorylation) (Src tyrosine kinase [1]): 10.8 µM

B31: Ac-CIF(NH2)KYY (67) (peptide)
peptide: Ac-CI[Phe(NH2)]KYY
IC50, inhibitory potency (Src kinase assay, polyE4Y phosphorylation) (Src tyrosine kinase [1]): 760 µM

B32: ATP-βAla-pTyr-Glu-Glu-Ile-OH (1) (peptide)
peptide: {ATP}-[βAla][pY]EEI-OH
notes: also called compound 1; ATP-phosphopeptide conjugate 1
Ki (Src tyrosine kinase [4]): 1.7 µM

From patent US20110034670A1 (BOARD OF GOVERNORS FOR HIGHER EDUCATION STATE OF RHODE …, published 2011)
